Results: article PMC7954600

Target: complex I-containing supercomplex (human (endogenous in fibroblasts and HEK293)) (UniProt P56181)
Assay: complexome profiling (blue native electrophoresis with mass spectrometry); mitochondria-enriched membranes of control fibroblast and control HEK293 cells, solubilised with detergent (digitonin for supercomplexes), 3% to 18% acrylamide blue native gel, gel bands or slices read by quantitative mass spectrometry; co-migration

Sequence of UniProt P56181 (P56181 whole entry, looked up, one chain of several): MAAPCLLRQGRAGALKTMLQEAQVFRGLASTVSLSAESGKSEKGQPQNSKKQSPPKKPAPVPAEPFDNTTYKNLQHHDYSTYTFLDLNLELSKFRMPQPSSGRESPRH

B1: DNAJC30 (natural protein)
chain: SQGDCSYSRTALYDLLGVPSTATQAQIKAAYYRQCFLYHPDRNSGSAEAAERFTRISQAYVVLGSATLRRKYDRGLLSDEDLRGPGVRPSRTPAPDPGSPRTPPPTSRTHDGSRASPGANRTMFNFDAFYQAHYGEQLERERRLRARREALRKRQEYRSMKGLRWEDTRDTAAIFLIFSIFIIIGFYI
Work on B1 yielded a ratio DNAJC30/complex I in the supercomplex (DNAJC30/complex I) of 0.005.
